Test results as given in patent publication US20090291081A1 (AbbVie / Abbott, published 2009).

Columns and labels:
human IL-1α [1] = target: T1, human IL-1α (human, UniProt P01583 113-271); assay: cell-based or functional assay
T1 sequence (looked up): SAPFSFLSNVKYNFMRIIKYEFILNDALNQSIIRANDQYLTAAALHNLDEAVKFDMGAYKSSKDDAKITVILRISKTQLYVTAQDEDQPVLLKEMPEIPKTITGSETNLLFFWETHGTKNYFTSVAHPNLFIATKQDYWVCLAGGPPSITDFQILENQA

human IL-1α [2] = target: T1, human IL-1α; assay: Table 62 IC50; RBA presumed
human IL-1β = target: T2, human IL-1β (human, UniProt P01584 117-269); assay: IC50 column of Table 63; receptor binding assay presumed
T2 construct: antigen of the ABT2 dAbs; also called hIL-1β; IL-1 beta

Row | Binder | ND50 (human IL-1α [1]) | IC50 (human IL-1α [2]) | IC50 (human IL-1β)
1 | ABT1-162 (other, VK dAb) VL: DIQMTQSPSSLSASVGGRVTITCRASHYIRNRLHWYQQKPGKAPKLLIARGSALQSGVPSRFSGSGSGTDFTLTISSLQPEDFATYYCVQDGYLPPTFGQGTKVEIKR | 6.2 nM | 1 µM | –
2 | ABT1-141-45 (other, VK dAb) VL: DIQMTQSPSSLSASVGDRVTITCRASQWIQKQLAWYQQKPGKAPKLLIYSSSYLQSGVPSRFSGSGSGTDFTLTISSLQLEDFATYYCQQHLRVPMTLGQGTKVEIKR | 100 nM | 0.1 µM | –
3 | ABT1-141-77 (other, VK dAb) VL: DIQMTQSPSSLSASVGDRVTITCRANQWIQKQLAWYQQKPGKAPKLLIFSSSHLQSGVPSRFSGSGSGTDFTLTISSLQPQDFATYYCQQHLRVPMTFGQGTKVEIKR | 1 nM | 0.003 µM | –
4 | ABT1-141-50 (other, VK dAb) VL: DIQMTQSPSSLSASVGDRVTITCRASQWIQKQLAWYQQKPGKTPKLLIYSSSYLQSGVPSRFSGSGSGTDFTLTISSLQPEDFATYYCQQHLRVPMTFGQGTNVEIKR | 20 nM | 0.01 µM | –
5 | ABT1-141-70 (other, VK dAb) VL: DIQMTQSPSSLSASVGDRVTITCRASQWIQKQLAWYQQKPGKAPKLLIYSSSHLQSGVPSRFSGSGYGTDFTLTISSLQPEDFATYYCQQHLRVPMTFGQGTKVEIKR | 1 nM | 0.001 µM | –
6 | ABT1-141-47 (other, VK dAb) VL: DIQMTQSPSSLSASVGDRVTITCRANQWIQKQLAWYQQKPGKAPKLLIYSSSHLQSGVPSRFSGSGSGTDFTLTISSLQPQDFATYYCQQHLRVPMTFGQGTKVEIKR | 1 nM | 0.001 µM | –
7 | ABT1-141-79 (other, VK dAb) VL: DIQMTQSPSSLSASVGDRVTITCRANQWIQKQLAWYQQKPGKAPKLLIFSSSHLQSGVPSRFSGSGSGTDFTLTISSLQPEDFATYYCQQHLRVPMTFGQGTKVEIKR | 2.4 nM | 0.003 µM | –
8 | ABT1-141-48 (other, VK dAb) VL: DIQMTQSPSSLSASVGDRVTITCRASQWIQKQLAWYQQKPGKAPKLLIFSSSHLQSGVPSRFSGSGSGTDFTLTISSLQPEDFASYYCQQHLRVPMTFGQGTKVEIKR | 1 nM | 0.003 µM | –
9 | ABT1-141-49 (other, VK dAb) VL: DIQMTQSPSSLSASVGDRVTITCRASQWIQKQLAWYQLKPGKAPKLLIYSSSHSQSGVPSRFSGSGSGTDFTLTISSLQPEDFATYYCQQHLRVPMTFGQGTKVEIKR | 5 nM | 0.003 µM | –
10 | ABT1-141-80 (other, VK dAb) VL: DIQMTQSPSSLSASVGDRVTITCRANQWIQKQLAWYQQKPGKAPKLLIYSSSHLQSGVPSRFSGSGYGTDFTLTISSLQPEDFATYYCQQHLRVPMTFGQGTKVEIKR | 1.7 nM | 0.003 µM | –
11 | ABT1-141-51 (other, VK dAb) VL: DIQMTQSPSSLSASVGDRVTITCRASQWIQKQLAWYQQKPGKVPKLLIYSSSYLQSGVPSRFSGSGSGTDFTLTISSLEPEDFATYYCQQHLRVPMTFGQGTKVVIKR | 20 nM | 0.01 µM | –
12 | ABT1-141-53 (other, VK dAb) VL: DIQMTQSPSSLSASVGDRVTITCRASQWIQKQLAWYQLKPGKTPKLLIFSSSYLQSGVPSRFSGSGSGTDFTLTISSLQPEDFATYYCQQHLRVPMTFGQGTKVEIKR | 10 nM | 0.05 µM | –
13 | ABT1-141-76 (other, VK dAb) VL: DIQMTQSPSSLSASVGDRVTITCRANQWIQKQLAWYQQKPGKAPKLLIYSSSHLQSGVPSRFSGSGSGTDFTLTISSLQPEDFATYYCQQHLRVPMTFGQGTKVEIKR | 1 nM | 0.001 µM | –
14 | ABT1-141-78 (other, VK dAb) VL: DIQMTQSPSSLSASVGDRVTITCRANQWIQKQLAWYQQKPGKAPKLLIYSSSHLQSGVPSRFSGSGYGTDFTLTISSLQPQDFATYYCQQHLRVPMTFGQGTKVEIKR | 0.7 nM | 0.003 µM | –
15 | ABT2-63 (other, VK dAb) VL: DIQMTQSPSSLSASVGDRVTITCRASQSIRVFLSWYQQKPGKAPKLLIYNASYLQSGVPSRFSGSGSGTDFTLTISSLQPEDFATYYCQQRALYPTTFGQGTKVEIKR | – | – | 1 µM
16 | ABT2-65-1 (other, VH dAb) VH: EVQLLESGGGLVQPGGSLRLSCAASGFTFEDYQMGWVRQAPGKGLEWVSSISAMGNRTYYADSVKGRFTISRDDSKNTLYLQMKSLRAEDTAVYYCAQNLVRTQSKMWMFDYWGQGTLVTVSS | – | – | 0.1 µM
17 | ABT2-65-12 (other, VH dAb) VH: EVQLLESGGGLVQPGGSLRLSCAASGFTFREYWMGWVRQAPGKGLEWVSSISAMGNRTYYADSVKGRFTISRDDSKNTLYLQMNSLRAEDTAVYYCANNLVRTQSKMWMFDYWGQGTLVTVSS | – | – | 0.02 µM
18 | ABT2-65-2 (other, VH dAb) VH: EVQLLESGGGLVQPGGSLRLSCAASGFTFSTYNMGWVRQAPGKGLEWVSSISAMGNRTYYADSVKGRFTISRDDSKNTLYLQMNSLRAEDTAVYYCANNLVRTQSKMWMFDYWGQGTLVTVSS | – | – | 0.02 µM
19 | ABT2-65-9 (other, VH dAb) VH: EVQLLESGGGLVHPGGSLRLSCAASGFTFRWYPMGWVRQAPGKGLEWVSSISAMGNRTYYADSVKGRFTISRDDSKNTLYLQMNSLRAEDTAVYYCAENLVRTQSKMWMFDYWGQGTLVTVSS | – | – | 0.1 µM
20 | ABT2-65-11 (other, VH dAb) VH: EVQLLESGGGLVQPGGSLRLSCAASGFTFRAYPMGWVRQAPGKGLEWVSSISAMGNRTYYADSVKGRFTISRDDSKNTLYLQMNSLRAEDTAVYYCANNLVRTQSKMWMFDYWGQGTLVTVSS | – | – | 0.05 µM
21 | ABT1-158 (other, VK dAb) VL: DIQMTQSPSSLSASVGDRVTITCRASRSIGRGLNWYQQKPGKAPKLLIGGWSGLQSGVPSRFSGSGSGTDFTLTISSLQPEDFATYYCAQASPLPTFGQGTKVEIKR | < 100 nM | 0.002 µM | –
22 | ABT1-148 (other, VK dAb) VL: DIQMTQSPSSLSASVGDRVTITCRASQSISSYLNWYQQKPGKAPKLLIGALSGLQSGVPSRFSGSGSGTDFTLTISSLQPEDFATYYCMQWYRHPSTFGQGTKVEIKR | 100 nM | 0.4 µM | –
23 | ABT1-161 (other, VK dAb) VL: DIQMTQSPSSLSASVGDRVTITCRASHAITGSLRWYQQKPGKAPKLLISGGSVLQSGVPSRFSGSGSGTDFTLTISSLQPEDFATYYCAQWLGGPMTFGQGTKVEIKR | 8 nM | > 1 µM | –
24 | ABT1-165 (other, VK dAb) VL: DIQMTQSPSSLSASVGDRVTITCRASSSIRAGLAWYQQKPGKAPKLLIGPESGLQSGVPSRFSGSGSGTDFTLTISSLQPEDFATYYCGQGIDGPATFGQGTKVEIKR | 1000 nM | > 1 µM | –
